Source: patent US20100015126A1, “Methods of Binding of Cross-Beta Structures By Chaperones” (priority 2006, published 2010)

What was measured:
[1] = test system: HUVECs; experiment: Adhesion of HUVECs to immobilized misfolded proteins under influence of BiP (LDH read-out); assay type: cell-based, human; conditions: BiP approximately 200 μg/ml
Protocol: HUVECs are primary endothelial cells (ECs), isolated from umbilical cords using 0.1% collagenase (Sigma, C0130, 100 mg, dissolved in 100 ml M199 medium supplemented with 10% FCS (Gibco 10106-169) and Penicillin-Streptomycin (P/S, Gibco, 15140-122)), according to widespread used standard procedures known to a person skilled in the art. HUVECs have the typical features of ECs, e.g. cobblestone morphology and von Willebrand factor storage in Weibel-Palade bodies. HUVECs can regularly be cultured up to passage 5; beyond passage 5 HUVECs loose typical EC markers. The isolation is described here in brief. The umbilical cord is washed for less than 3 minutes in ethanol and subsequently with PBS. The vein is connected to canules and flushed with 10 ml PBS, followed by loading with the 0.1% collagenase solution. After a 15 minute-incubation at 37° C., the detached endothelial cell suspension is recovered by flushing the vein with 10 ml medium which is subsequently added to the collagenase solution. The EC suspension is centrifuged for 5 minutes at room temperature, at low g-force. Supernatant is discarded and the cell pellet is resuspended in 5 ml ‘rich medium’ (EGM-2; Endothelial basal medium (EBM-2, Cambrex, CC-3156) and Singlequots containing supplements for endothelial cells (Cambrex, CC-4176)). Cells (passage 0, P0) are seeded in a culture flask coated with 0.5% gelatin (Sigma, G1393). To facilitate the adhesion of the endothelial cells, human fibronectin is added to the cell culture at a final concentration of 2 μg/ml. EC's are cultured at 37° C., at 5% CO2. The cell culture medium is refreshed every 2-3 days up to when the cells grow to confluency. Then, with the addition of trypsin-EDTA, the cells are detached from the flask, centrifuged at low g-force, resuspended in rich medium and seeded in larger 0.5% gelatin-precoated cell culture flasks.
In 96-wells plates (Immulon high-binding plates, Thermo Labsystems 3355) proteins, i.e. BSA-AGE, control BSA, IgIV Gammagard, crossbeta dIgIV-86 at 5 μg/ml, 10 μg/ml misfolded oxLDL, or gelatin (Sigma G1393, 2% solution in H2O or PBS, positive control for adhesion to ECs) were coated using 100 μl solutions, in six wells for each condition. Following incubation for 2 hours at 37° C. the solutions were discarded and the wells blocked for 1 hour at 37° C. with 100 μl/well of 1% polyvinyl-pyrrolidone (PVP, Sigma P5288) in PBS, filter (0.22 μm) sterilized. […] Subsequently, the block solution was discarded. Next, the plates were incubated with 40 μl RPMI 1640 medium (Gibco, 52400) and 10 μl of the potential inhibitor, i.e. recombinant human BiP at approximately 200 μg/ml final concentration. HUVECs were obtained by trypsinization. […] The absorbance at 490 nm was measured on a Versamax microplate reader at various time points.

[2] = molecular target: T1, factor XII in plasma (Homo sapiens, UniProt P00748); experiment: Factor XII activation assay (direct, substrate S-2222); assay type: biochemical; conditions: chromogenic substrate S-2222
T1 construct: from tissue; host or cells: plasma
T1 sequence (P00748 20-615): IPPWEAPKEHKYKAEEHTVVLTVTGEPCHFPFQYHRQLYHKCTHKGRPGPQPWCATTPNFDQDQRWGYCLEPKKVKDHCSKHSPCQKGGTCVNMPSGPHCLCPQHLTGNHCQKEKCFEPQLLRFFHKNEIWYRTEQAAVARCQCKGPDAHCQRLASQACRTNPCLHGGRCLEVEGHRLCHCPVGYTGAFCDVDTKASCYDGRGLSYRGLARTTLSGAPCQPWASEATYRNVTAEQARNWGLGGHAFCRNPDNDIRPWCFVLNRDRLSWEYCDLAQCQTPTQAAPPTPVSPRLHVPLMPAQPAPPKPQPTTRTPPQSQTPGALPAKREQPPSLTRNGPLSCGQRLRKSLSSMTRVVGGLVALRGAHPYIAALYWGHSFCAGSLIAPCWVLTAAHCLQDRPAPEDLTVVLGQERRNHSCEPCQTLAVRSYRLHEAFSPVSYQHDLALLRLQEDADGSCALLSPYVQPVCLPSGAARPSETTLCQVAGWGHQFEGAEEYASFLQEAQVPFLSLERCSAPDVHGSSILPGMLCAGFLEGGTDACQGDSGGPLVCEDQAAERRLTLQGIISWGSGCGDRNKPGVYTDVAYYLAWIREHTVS
Protocol: Alternatively, activation of factor XII was assessed directly by omitting prekallikrein and using a factor XII chromogenic substrate, S-2222 (Chromogenix, Italy).

[3] = molecular target: T2, human BiP (Homo sapiens, UniProt P11021); experiment: ELISA: binding of BiP-FLAG-His to immobilized (misfolded) protein ligands; conditions: ligands coated at 5 μg/ml; 6BB peptides and oxLDL 50 μg/ml
T2 construct: The human BiP gene except the signal peptide encoding region was obtained from Geneart (Germany); linker […]; made in house; host or cells: HEK 293E cells, transient transfection, PABC674 vector; secreted into the medium
T2 sequence (P11021 19-654): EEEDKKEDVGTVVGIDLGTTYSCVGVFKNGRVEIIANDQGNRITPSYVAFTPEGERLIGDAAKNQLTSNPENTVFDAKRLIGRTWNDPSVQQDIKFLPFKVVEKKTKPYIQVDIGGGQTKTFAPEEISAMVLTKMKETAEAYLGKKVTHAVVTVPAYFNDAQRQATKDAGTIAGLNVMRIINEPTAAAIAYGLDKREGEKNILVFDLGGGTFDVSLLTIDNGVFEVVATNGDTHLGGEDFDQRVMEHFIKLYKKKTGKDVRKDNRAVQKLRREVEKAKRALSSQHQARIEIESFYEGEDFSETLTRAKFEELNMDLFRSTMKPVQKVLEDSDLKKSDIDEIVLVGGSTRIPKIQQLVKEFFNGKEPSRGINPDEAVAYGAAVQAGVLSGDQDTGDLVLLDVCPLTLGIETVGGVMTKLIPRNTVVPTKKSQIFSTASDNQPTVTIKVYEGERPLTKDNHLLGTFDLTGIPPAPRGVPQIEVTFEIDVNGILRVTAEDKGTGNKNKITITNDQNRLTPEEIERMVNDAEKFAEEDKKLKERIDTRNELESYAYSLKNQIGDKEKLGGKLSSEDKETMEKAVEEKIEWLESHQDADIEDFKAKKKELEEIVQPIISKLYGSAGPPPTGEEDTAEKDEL
How it was run: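 Ligands were coated at 5 μg/ml (50 μg/ml for 6BB# peptides and oxLDL) in 50 mM NaHCO3 pH 9.6, blocked, then incubated in triplicate with BiP-FLAG-His dilution series for 1 h at room temperature. Bound BiP was detected with peroxidase anti-FLAG M2 and TMB, stopped after 5 min and read at 450 nm. Buffer-only and chaperone-omitted background signals were subtracted.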

| Activation of factor XII in plasma (conversion of S-2222) [2] | Binding of concentration series of BiP to coated ligand [3] | Substance | Number of adhered HUVECs after preincubation of coated protein with BiP [1] |
| --- | --- | --- | --- |
| – | – | gelatin | hardly increase |
| stimulates the conversion of S-2222 | has been established | KRLEVDIDIKIRS [FP13, synthetic fibrin fragment comprising crossbeta structure] | – |
